Measured values from publication PMC6458997.

Columns and labels:
[1] = biological target: T1, AimR (phi3T) (Bacillus phage phi3T, UniProt P0DOE3 1-378); test: EMSA; EMSA: 50 mM HEPES pH 7.5, 5 mM MgCl2, 75 mM NaCl, 0.5 mM EDTA; 0.4 uM DNA, 4 uM AimR; 10 min at room temperature; 8% PAGE in TBE at 4 C or agarose in TAE at room temperature; details: protein: recombinant; tags: N-terminal 6xHis; same purification protocol as SPbeta AimR
T1 sequence: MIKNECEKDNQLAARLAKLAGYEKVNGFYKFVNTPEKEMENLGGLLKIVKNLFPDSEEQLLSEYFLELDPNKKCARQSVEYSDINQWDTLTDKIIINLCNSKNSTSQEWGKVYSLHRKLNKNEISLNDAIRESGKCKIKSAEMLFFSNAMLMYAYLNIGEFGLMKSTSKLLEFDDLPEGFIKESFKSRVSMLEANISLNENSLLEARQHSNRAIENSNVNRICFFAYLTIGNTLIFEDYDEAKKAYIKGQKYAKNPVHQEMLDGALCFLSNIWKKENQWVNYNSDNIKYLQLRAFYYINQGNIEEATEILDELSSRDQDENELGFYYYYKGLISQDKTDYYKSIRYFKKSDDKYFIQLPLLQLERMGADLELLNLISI

[2] = biological target: T2, AimR (SPbeta) (Bacillus subtilis phage SPbeta (cloned …, UniProt O31927 1-386)); test: X-ray crystallography; 2.2 A; 200 mM MgCl2, pH 7.5; AimR:DNA 2:1; EMSA: 50 mM HEPES pH 7.5, 5 mM MgCl2, 75 mM NaCl, 0.5 mM EDTA; 0.4 uM DNA, 4 uM AimR; 10 min at room temperature; 8% PAGE in TBE at 4 C or agarose in TAE at room temperature; details: protein: recombinant; tags: N-terminal 6xHis-TEV, cleaved; chain copies: 2
T2 sequence: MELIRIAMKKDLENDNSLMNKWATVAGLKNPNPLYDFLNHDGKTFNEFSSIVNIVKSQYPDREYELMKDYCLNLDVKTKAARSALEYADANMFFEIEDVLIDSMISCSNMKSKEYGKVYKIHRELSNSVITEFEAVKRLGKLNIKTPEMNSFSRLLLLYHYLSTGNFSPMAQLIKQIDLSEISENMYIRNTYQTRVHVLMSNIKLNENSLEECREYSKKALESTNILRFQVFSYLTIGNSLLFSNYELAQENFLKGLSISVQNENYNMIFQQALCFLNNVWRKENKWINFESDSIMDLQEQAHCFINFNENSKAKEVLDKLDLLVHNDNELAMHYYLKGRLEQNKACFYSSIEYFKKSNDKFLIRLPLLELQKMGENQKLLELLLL

[3] = biological target: T2, AimR (SPbeta); test: EMSA; apo; EMSA: 50 mM HEPES pH 7.5, 5 mM MgCl2, 75 mM NaCl, 0.5 mM EDTA; 0.4 uM DNA, 4 uM AimR; 10 min at room temperature; 8% PAGE in TBE at 4 C or agarose in TAE at room temperature; details: protein: recombinant; tags: N-terminal 6xHis-TEV, cleaved; chain copies: 2

B1: phi3T operator 37 bp (dsDNA)
DNA 1: ATGTTCCAGAAATTCAAAAATCAAAAAATAAGAACAT
DNA 2: ATGTTCTTATTTTTTGATTTTTGAATTTCTGGAACAT
B1: binds [1].

B2: crystal operator 43 bp (dsDNA)
DNA 1: TTGATCACTAGATGTTATTAAAACCTAATATTTAAGTGATGGC
DNA 2: GCCATCACTTAAATATTAGGTTTTAATAACATCTAGTGATCAA
B2: binds [2].

B3: SPbeta operator WT 45 bp (dsDNA)
DNA 1: GTTGATCACTAGATGTTATTAAAACCTAATATTTAAGTGATGGCC
DNA 2: GGCCATCACTTAAATATTAGGTTTTAATAACATCTAGTGATCAAC
B3: binds [3].
